# Experimental data: US20090298769
# Legend:
# [1] = system: control peptide KEATSTFTNIT FRGTCOOH
# [2] = system: β3 integrin cytoplasmic peptide specific for tyrosine-747 (DTANNPLYpKEATSTFT-COOH)
# [3] = system: recombinant β3 integrin cytoplasmic tail-GST fusion protein
# [4] = system: β3 integrin cytoplasmic peptide specific for tyrosine-759 (KEATSTFTNITYpRGT-COOH)
# [5] = system: control peptide DTANNPLF KEATSTFT-COOH
Substance,"[γ-32P] ATP incorporation, in vitro kinase assay (control peptide, lower incorporation) [1]","[γ-32P] ATP incorporation, in vitro kinase assay [2]","[γ-32P] ATP incorporation, in vitro kinase assay [3]","[γ-32P] ATP incorporation, in vitro kinase assay [4]","[γ-32P] ATP incorporation, in vitro kinase assay (control peptide, lower incorporation) [5]"
c-Src of HUVEC (endogenous),a dramatic increase in [γ-^32P] ATP incorporation was observed as compared to control peptides devoid of tyrosine motifs,"In the presence of Tyr-747/Tyr-759 β3 integrin cytoplasmic peptide, a dramatic increase in [γ-^32P] ATP incorporation was observed as compared to control peptides devoid of tyrosine motifs",the immunoprecipitated c-Src can phosphorylate β3 integrin cytoplasmic domain,"In the presence of Tyr-747/Tyr-759 β3 integrin cytoplasmic peptide, a dramatic increase in [γ-^32P] ATP incorporation was observed as compared to control peptides devoid of tyrosine motifs",a dramatic increase in [γ-^32P] ATP incorporation was observed as compared to control peptides devoid of tyrosine motifs
"purified, recombinant full-length c-Src",,,Recombinant purified c-Src also phosphorylated the β3 integrin whereas no phosphorylation was observed without the substrate,,
